Source: publication PMC3902040

Molecular target: Factor H (CFH) (human) (UniProt P08603)
Test: SPR

UniProt P08603, sequence (P08603 19-1231): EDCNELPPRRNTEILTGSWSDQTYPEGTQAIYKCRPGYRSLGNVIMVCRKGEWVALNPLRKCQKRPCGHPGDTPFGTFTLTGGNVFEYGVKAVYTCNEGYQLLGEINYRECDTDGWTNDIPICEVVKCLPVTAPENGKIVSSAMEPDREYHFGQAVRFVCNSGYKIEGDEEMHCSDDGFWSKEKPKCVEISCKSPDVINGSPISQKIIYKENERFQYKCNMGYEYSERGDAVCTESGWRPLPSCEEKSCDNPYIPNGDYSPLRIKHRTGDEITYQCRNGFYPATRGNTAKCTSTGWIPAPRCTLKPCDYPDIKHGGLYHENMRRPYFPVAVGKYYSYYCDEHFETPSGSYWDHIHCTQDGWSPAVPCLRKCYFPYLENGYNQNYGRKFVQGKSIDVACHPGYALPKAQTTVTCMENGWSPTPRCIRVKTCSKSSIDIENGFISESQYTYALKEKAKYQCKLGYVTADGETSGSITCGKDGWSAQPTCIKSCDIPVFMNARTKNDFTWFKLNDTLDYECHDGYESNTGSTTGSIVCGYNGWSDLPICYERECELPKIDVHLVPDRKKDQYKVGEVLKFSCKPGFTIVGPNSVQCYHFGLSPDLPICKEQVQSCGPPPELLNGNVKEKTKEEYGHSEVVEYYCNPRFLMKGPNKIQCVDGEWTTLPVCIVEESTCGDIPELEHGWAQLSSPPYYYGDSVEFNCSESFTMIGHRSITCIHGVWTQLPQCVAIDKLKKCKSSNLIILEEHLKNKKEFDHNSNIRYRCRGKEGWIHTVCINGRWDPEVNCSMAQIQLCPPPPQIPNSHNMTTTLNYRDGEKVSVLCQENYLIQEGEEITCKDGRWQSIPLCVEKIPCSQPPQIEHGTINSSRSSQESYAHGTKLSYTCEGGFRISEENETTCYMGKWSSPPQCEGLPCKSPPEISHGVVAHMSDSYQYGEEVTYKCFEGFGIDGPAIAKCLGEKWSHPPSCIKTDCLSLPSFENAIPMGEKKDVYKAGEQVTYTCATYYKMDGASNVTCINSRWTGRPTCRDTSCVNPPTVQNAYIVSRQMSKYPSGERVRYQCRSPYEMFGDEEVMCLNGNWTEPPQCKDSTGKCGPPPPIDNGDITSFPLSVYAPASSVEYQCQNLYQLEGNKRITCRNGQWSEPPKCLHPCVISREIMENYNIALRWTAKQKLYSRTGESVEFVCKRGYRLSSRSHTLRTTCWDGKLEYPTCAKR

reduced binding against 155K C3 (percent): 60%
Substance: 155Q C3 protein (C3 K155Q variant, rs147859257), methylamine-treated C3 (MA) (natural protein)
